For assay [1], the target named is T1, human calcitonin receptor (human, UniProt P30988 25-474).
T1 construct: whole, on cells; Membranes of a stably transfected BHK cell line (Assay VII); also called hCTR; hCT
T1 sequence (looked up): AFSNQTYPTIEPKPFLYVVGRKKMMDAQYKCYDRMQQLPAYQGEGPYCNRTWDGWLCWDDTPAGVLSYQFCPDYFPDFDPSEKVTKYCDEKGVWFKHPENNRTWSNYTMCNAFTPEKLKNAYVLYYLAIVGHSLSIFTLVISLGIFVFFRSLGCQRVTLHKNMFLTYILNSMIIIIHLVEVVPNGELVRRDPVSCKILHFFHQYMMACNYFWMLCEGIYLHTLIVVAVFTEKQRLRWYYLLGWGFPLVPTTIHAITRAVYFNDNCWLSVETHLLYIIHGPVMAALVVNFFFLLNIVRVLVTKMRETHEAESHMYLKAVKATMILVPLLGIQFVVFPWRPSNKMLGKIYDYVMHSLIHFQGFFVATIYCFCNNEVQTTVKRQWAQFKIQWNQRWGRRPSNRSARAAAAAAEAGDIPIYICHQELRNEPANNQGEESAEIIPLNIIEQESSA
The assay can be described thus: ratio IC50 human calcitonin receptor / IC50 human amylin receptor (reference). The essentials:
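Membranes (35 ng/μL final) + SPA beads, 50 mM Hepes pH 7.4 buffer with 1 mM CaCl2, 5 mM MgCl₂, 0.1% OA, 0.02% Tween20; 120 min, 25° C, shaking; centrifuged, counted; IC₅₀ by one-site binding competition.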

In assay [2] the target is T2, rat calcitonin receptor (rat, UniProt P32214 25-516).
T2 construct: whole, on cells; Membranes of transiently transfected BHK tk'ts 13 cells (Assay VIII); also called rCTR
T2 sequence (looked up): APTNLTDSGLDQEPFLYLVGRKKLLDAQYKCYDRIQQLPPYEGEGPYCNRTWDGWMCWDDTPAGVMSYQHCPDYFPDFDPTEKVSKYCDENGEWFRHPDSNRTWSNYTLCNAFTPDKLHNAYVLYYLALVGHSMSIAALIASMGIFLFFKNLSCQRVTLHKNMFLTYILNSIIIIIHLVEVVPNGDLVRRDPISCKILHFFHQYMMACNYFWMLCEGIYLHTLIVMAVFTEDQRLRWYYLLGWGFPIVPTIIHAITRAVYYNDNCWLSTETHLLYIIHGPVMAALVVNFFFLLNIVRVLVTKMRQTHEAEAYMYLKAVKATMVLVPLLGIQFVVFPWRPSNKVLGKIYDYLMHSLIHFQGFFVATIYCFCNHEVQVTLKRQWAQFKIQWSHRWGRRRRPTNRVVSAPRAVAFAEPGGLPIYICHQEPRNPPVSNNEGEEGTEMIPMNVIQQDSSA
Put plainly: SPA competition with 125I-calcitonin, membranes of BHK cells with rat calcitonin receptor (Assay VIII).

Assay [3] deals with T3, rat amylin receptor (rat calcitonin receptor + rat RAMP 3) (rat, UniProt P32214 25-516; Q9JJ73 23-147).
T3 construct: whole, on cells; Membranes of transiently transfected BHK tk'ts 13 cells (Assay VI); also called rAmylin-R; rat amylin 3(a) receptor
T3 sequence (looked up) 1: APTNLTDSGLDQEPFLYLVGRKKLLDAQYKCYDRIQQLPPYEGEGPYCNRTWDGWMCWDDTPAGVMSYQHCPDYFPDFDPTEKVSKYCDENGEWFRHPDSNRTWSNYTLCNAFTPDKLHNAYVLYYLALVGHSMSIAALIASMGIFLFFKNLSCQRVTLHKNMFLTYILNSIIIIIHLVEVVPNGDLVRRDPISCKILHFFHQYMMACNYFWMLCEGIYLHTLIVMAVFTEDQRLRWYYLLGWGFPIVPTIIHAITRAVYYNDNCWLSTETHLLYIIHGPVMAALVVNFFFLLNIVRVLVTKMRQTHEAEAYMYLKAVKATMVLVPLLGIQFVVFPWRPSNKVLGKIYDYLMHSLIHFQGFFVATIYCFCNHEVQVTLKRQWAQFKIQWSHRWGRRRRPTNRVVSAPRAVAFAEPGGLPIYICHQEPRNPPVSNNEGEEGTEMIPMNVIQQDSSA
T3 sequence (looked up) 2: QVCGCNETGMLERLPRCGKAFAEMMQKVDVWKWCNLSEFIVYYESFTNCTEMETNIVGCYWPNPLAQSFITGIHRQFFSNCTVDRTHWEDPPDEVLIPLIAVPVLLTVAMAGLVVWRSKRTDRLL
Put plainly: SPA competition with 125I-rat amylin, membranes of BHK cells with rat calcitonin receptor + rat RAMP3 (Assay VI).

Assay [4] deals with T2, rat calcitonin receptor. The assay can be described thus: ratio IC50 rat calcitonin receptor / IC50 rat amylin receptor (reference).

Numbered stars: 1 amine (or outer) side, 2 acyl side, 3 side chain; on linkers, the order of the positions; unused ones are H or OH. Bridge positions count the residues as written; N and C are the ends. Side chains are listed from the residue outwards. Ends that are not written are not given here. * marks the point of attachment. C20 diacid = O=C(O)CCCCCCCCCCCCCCCCCCC(=O)*; C18 diacid = O=C(O)CCCCCCCCCCCCCCCCC(=O)*; C16 diacid = O=C(O)CCCCCCCCCCCCCCC(=O)*; γGlu = O=C(O)[C@H](CCC(=O)[*:2])N[*:1]

B1: N^ε1-[(4S)-4-carboxy-4-(15-carboxypentadecanoylamino)butanoyl]-[Arg17,Pro21,Pro27,His34]-h-amylin (peptide)
peptide: K([γGlu-C16 diacid])CNTATCATQRLANFLRHSSPNFGAIPSSTNVGHNTY-NH2
modifications: disulfide 2-7; N-terminus assumed
SMILES: CC[C@H](C)[C@H](NC(=O)[C@H](C)NC(=O)CNC(=O)[C@H](Cc1ccccc1)NC(=O)[C@H](CC(N)=O)NC(=O)[C@@H]1CCCN1C(=O)[C@H](CO)NC(=O)[C@H](CO)NC(=O)[C@H](Cc1c[nH]cn1)NC(=O)[C@H](CCCNC(=N)N)NC(=O)[C@H](CC(C)C)NC(=O)[C@H](Cc1ccccc1)NC(=O)[C@H](CC(N)=O)NC(=O)[C@H](C)NC(=O)[C@H](CC(C)C)NC(=O)[C@H](CCCNC(=N)N)NC(=O)[C@H](CCC(N)=O)NC(=O)[C@@H](NC(=O)[C@H](C)NC(=O)[C@@H]1CSSC[C@H](NC(=O)[C@@H](N)CCCCNC(=O)CC[C@H](NC(=O)CCCCCCCCCCCCCCC(=O)O)C(=O)O)C(=O)N[C@@H](CC(N)=O)C(=O)N[C@@H]([C@@H](C)O)C(=O)N[C@@H](C)C(=O)N[C@@H]([C@@H](C)O)C(=O)N1)[C@@H](C)O)C(=O)N1CCC[C@H]1C(=O)N[C@@H](CO)C(=O)N[C@@H](CO)C(=O)N[C@H](C(=O)N[C@@H](CC(N)=O)C(=O)N[C@H](C(=O)NCC(=O)N[C@@H](Cc1c[nH]cn1)C(=O)N[C@@H](CC(N)=O)C(=O)N[C@H](C(=O)N[C@@H](Cc1ccc(O)cc1)C(N)=O)[C@@H](C)O)C(C)C)[C@@H](C)O
In general, IC50 refers to the concentration needed to halve the response being measured. Take B1: the “Ratio hCT/hAmylin binding” value in assay [1] is 18.5. Besides, the values for the IC50 (with rat calcitonin receptor [2]; in assay [3]) were 404 nM and 1.24 nM, respectively. The “Ratio rCT/rAmylin binding” value with rat calcitonin receptor [4] turned out to be 327.

B2: N^ε1-[(4S)-4-carboxy-4-(19-carboxynonadecanoylamino)butanoyl]-[Ala14,Arg17,Pro21,Pro27,His34]-h-amylin (peptide)
peptide: K([γGlu-C20 diacid])CNTATCATQRLAAFLRHSSPNFGAIPSSTNVGHNTY-NH2
modifications: disulfide 2-7; N-terminus assumed
SMILES: CC[C@H](C)[C@H](NC(=O)[C@H](C)NC(=O)CNC(=O)[C@H](Cc1ccccc1)NC(=O)[C@H](CC(N)=O)NC(=O)[C@@H]1CCCN1C(=O)[C@H](CO)NC(=O)[C@H](CO)NC(=O)[C@H](Cc1c[nH]cn1)NC(=O)[C@H](CCCNC(=N)N)NC(=O)[C@H](CC(C)C)NC(=O)[C@H](Cc1ccccc1)NC(=O)[C@H](C)NC(=O)[C@H](C)NC(=O)[C@H](CC(C)C)NC(=O)[C@H](CCCNC(=N)N)NC(=O)[C@H](CCC(N)=O)NC(=O)[C@@H](NC(=O)[C@H](C)NC(=O)[C@@H]1CSSC[C@H](NC(=O)[C@@H](N)CCCCNC(=O)CC[C@H](NC(=O)CCCCCCCCCCCCCCCCCCC(=O)O)C(=O)O)C(=O)N[C@@H](CC(N)=O)C(=O)N[C@@H]([C@@H](C)O)C(=O)N[C@@H](C)C(=O)N[C@@H]([C@@H](C)O)C(=O)N1)[C@@H](C)O)C(=O)N1CCC[C@H]1C(=O)N[C@@H](CO)C(=O)N[C@@H](CO)C(=O)N[C@H](C(=O)N[C@@H](CC(N)=O)C(=O)N[C@H](C(=O)NCC(=O)N[C@@H](Cc1c[nH]cn1)C(=O)N[C@@H](CC(N)=O)C(=O)N[C@H](C(=O)N[C@@H](Cc1ccc(O)cc1)C(N)=O)[C@@H](C)O)C(C)C)[C@@H](C)O
notes: also called compound 93
Turning to B2, in assay [1], the “Ratio hCT/hAmylin binding” value is 101. Moreover, the IC50 in the assay with rat calcitonin receptor [2] was 131 nM; in assay [3], 1.58 nM. The “Ratio rCT/rAmylin binding” value with rat calcitonin receptor [4] worked out at 83.2.

B3: N^ε1-[(4S)-4-carboxy-4-(17-carboxyheptadecanoylamino)butanoyl]-[Arg17,Pro21,Pro27,His34]-h-amylin (peptide)
peptide: K([γGlu-C18 diacid])CNTATCATQRLANFLRHSSPNFGAIPSSTNVGHNTY-NH2
modifications: disulfide 2-7; N-terminus assumed
SMILES: CC[C@H](C)[C@H](NC(=O)[C@H](C)NC(=O)CNC(=O)[C@H](Cc1ccccc1)NC(=O)[C@H](CC(N)=O)NC(=O)[C@@H]1CCCN1C(=O)[C@H](CO)NC(=O)[C@H](CO)NC(=O)[C@H](Cc1c[nH]cn1)NC(=O)[C@H](CCCNC(=N)N)NC(=O)[C@H](CC(C)C)NC(=O)[C@H](Cc1ccccc1)NC(=O)[C@H](CC(N)=O)NC(=O)[C@H](C)NC(=O)[C@H](CC(C)C)NC(=O)[C@H](CCCNC(=N)N)NC(=O)[C@H](CCC(N)=O)NC(=O)[C@@H](NC(=O)[C@H](C)NC(=O)[C@@H]1CSSC[C@H](NC(=O)[C@@H](N)CCCCNC(=O)CC[C@H](NC(=O)CCCCCCCCCCCCCCCCC(=O)O)C(=O)O)C(=O)N[C@@H](CC(N)=O)C(=O)N[C@@H]([C@@H](C)O)C(=O)N[C@@H](C)C(=O)N[C@@H]([C@@H](C)O)C(=O)N1)[C@@H](C)O)C(=O)N1CCC[C@H]1C(=O)N[C@@H](CO)C(=O)N[C@@H](CO)C(=O)N[C@H](C(=O)N[C@@H](CC(N)=O)C(=O)N[C@H](C(=O)NCC(=O)N[C@@H](Cc1c[nH]cn1)C(=O)N[C@@H](CC(N)=O)C(=O)N[C@H](C(=O)N[C@@H](Cc1ccc(O)cc1)C(N)=O)[C@@H](C)O)C(C)C)[C@@H](C)O
Turning to B3, the “Ratio hCT/hAmylin binding” value in assay [1] is 59.4. For the same molecule, the IC50 in the assay with rat calcitonin receptor [2] was 47 nM; in assay [3] it was 1.17 nM. Besides, the “Ratio rCT/rAmylin binding” value with rat calcitonin receptor [4] amounted to 40.3.

B4: N^ε1-[(4S)-4-carboxy-4-(19-carboxynonadecanoylamino)butanoyl]-[Ala14,Arg17,Pro21,Pro27,Pro34]-h-amylin (peptide)
peptide: K([γGlu-C20 diacid])CNTATCATQRLAAFLRHSSPNFGAIPSSTNVGPNTY-NH2
modifications: disulfide 2-7; N-terminus assumed
SMILES: CC[C@H](C)[C@H](NC(=O)[C@H](C)NC(=O)CNC(=O)[C@H](Cc1ccccc1)NC(=O)[C@H](CC(N)=O)NC(=O)[C@@H]1CCCN1C(=O)[C@H](CO)NC(=O)[C@H](CO)NC(=O)[C@H](Cc1c[nH]cn1)NC(=O)[C@H](CCCNC(=N)N)NC(=O)[C@H](CC(C)C)NC(=O)[C@H](Cc1ccccc1)NC(=O)[C@H](C)NC(=O)[C@H](C)NC(=O)[C@H](CC(C)C)NC(=O)[C@H](CCCNC(=N)N)NC(=O)[C@H](CCC(N)=O)NC(=O)[C@@H](NC(=O)[C@H](C)NC(=O)[C@@H]1CSSC[C@H](NC(=O)[C@@H](N)CCCCNC(=O)CC[C@H](NC(=O)CCCCCCCCCCCCCCCCCCC(=O)O)C(=O)O)C(=O)N[C@@H](CC(N)=O)C(=O)N[C@@H]([C@@H](C)O)C(=O)N[C@@H](C)C(=O)N[C@@H]([C@@H](C)O)C(=O)N1)[C@@H](C)O)C(=O)N1CCC[C@H]1C(=O)N[C@@H](CO)C(=O)N[C@@H](CO)C(=O)N[C@H](C(=O)N[C@@H](CC(N)=O)C(=O)N[C@H](C(=O)NCC(=O)N1CCC[C@H]1C(=O)N[C@@H](CC(N)=O)C(=O)N[C@H](C(=O)N[C@@H](Cc1ccc(O)cc1)C(N)=O)[C@@H](C)O)C(C)C)[C@@H](C)O
notes: also called compound 94
On to B4, for which the “Ratio hCT/hAmylin binding” value in assay [1] stood at 46.3. The IC50 with rat calcitonin receptor [2] came to 111 nM; in assay [3], 0.397 nM. Besides, the “Ratio rCT/rAmylin binding” value in the assay with rat calcitonin receptor [4] is 280.

The record behind these values is patent publication US20140087995A1 (published 2014).
